Assay results published in PMC6358617.
pKd: −log10 of the molar value.

System: rituximab (MabThera, lot N7075B10)
Assay: SAW
Conditions: 20 mM Tris-HCl pH 7.6, 100 mM NaCl, 2 mM MgCl2, 5 mM KCl, 1 mM CaCl2, 0.02% Tween 20; SAW at 22 C (protein A chip-captured rituximab); ELASA at room …

Sequence | pKd
CGGCGGGGGGAGGATTGTGGTCTGCTCATGGCTGCCGTTT [RA1] | 6.17
CGTGGGTGGGGATTGTGGTTTGGCTGATGGGGTGCTGGTT [RA6] | 6.05
GGGGGTGAGGATTGTGGTTTGGCTTATTGGTTTGCTGGTG [RA3] | 6.15
TATACTGGGCCGTGCGTGACTTTTCCGTGCTGCATGAGAG [RA4] | 6.45
TGGGGGTAGGATTGTGGTTGGCTTTAATTGCTTTGGTGGT [RA2] | 6.40
